Assay results as given in PMC12153800 (2025).

What was measured:
HiBiT-FZD2-mCherry = HiBiT-FZD2-mCherry (mouse, UniProt Q9JIP6 29-570)
HiBiT-FZD1-mCherry = HiBiT-FZD1-mCherry (mouse, UniProt O70421 69-642)
HiBiT-FZD4-mCherry = molecular target: T1, HiBiT-FZD4-mCherry (mouse, UniProt Q61088 37-537)
T1 chain: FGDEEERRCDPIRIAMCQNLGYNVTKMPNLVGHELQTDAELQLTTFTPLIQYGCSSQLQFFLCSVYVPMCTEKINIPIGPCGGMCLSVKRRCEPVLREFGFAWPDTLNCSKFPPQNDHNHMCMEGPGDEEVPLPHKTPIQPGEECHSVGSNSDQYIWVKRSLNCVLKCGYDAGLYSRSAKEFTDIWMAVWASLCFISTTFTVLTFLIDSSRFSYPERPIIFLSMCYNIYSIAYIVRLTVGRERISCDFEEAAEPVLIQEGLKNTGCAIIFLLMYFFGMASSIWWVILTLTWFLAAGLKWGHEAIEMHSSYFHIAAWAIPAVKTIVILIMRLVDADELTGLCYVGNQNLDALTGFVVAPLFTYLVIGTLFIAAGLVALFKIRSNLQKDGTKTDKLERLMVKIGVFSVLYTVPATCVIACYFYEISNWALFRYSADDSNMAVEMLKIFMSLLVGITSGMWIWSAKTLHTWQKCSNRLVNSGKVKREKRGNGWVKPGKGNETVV

[1] = molecular target: T2, HiBiT-FZD5-mCherry (U-2 OS cells) (mouse, UniProt Q9EQD0 27-585)
T2 chain: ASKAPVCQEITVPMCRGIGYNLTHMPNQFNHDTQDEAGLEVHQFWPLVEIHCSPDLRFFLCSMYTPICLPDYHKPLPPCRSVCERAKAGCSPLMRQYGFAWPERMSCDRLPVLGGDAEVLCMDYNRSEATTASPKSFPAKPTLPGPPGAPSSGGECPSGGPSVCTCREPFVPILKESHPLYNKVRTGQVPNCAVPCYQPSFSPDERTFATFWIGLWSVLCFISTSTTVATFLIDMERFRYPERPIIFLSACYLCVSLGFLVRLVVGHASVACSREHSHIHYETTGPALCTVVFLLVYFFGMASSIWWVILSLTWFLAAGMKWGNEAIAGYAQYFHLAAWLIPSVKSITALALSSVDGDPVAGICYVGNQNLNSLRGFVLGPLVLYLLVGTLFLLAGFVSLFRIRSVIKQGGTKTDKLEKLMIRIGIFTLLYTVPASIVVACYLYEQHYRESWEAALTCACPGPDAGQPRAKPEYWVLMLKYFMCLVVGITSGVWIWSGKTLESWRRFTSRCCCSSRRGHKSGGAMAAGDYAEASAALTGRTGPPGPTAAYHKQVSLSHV

HiBiT-FZD8-mCherry = molecular target: T3, HiBiT-FZD8-mCherry (mouse, UniProt Q61091 28-685)
T3 chain: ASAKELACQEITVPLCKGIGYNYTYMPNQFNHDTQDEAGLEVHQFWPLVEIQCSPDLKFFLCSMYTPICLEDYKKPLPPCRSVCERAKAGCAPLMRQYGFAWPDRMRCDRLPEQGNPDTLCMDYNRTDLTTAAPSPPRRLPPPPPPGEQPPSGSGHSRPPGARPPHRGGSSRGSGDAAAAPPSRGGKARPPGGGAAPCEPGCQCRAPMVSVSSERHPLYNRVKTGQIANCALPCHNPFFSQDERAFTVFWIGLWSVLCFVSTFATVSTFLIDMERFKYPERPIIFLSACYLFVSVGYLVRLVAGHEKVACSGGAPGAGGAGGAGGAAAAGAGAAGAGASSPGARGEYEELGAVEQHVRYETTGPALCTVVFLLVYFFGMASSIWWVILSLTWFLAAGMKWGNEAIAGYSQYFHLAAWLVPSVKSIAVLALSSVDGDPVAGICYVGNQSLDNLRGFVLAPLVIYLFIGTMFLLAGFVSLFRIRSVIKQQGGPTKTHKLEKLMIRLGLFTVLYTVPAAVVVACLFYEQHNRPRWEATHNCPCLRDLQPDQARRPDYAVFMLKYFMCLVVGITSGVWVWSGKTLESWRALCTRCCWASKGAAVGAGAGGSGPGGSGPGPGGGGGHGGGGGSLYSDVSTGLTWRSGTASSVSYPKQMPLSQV

HiBiT-FZD7-mCherry = HiBiT-FZD7-mCherry (mouse, UniProt Q61090 33-572)

HiBiT-FZD2-mCherry, sequence (Q9JIP6 29-570): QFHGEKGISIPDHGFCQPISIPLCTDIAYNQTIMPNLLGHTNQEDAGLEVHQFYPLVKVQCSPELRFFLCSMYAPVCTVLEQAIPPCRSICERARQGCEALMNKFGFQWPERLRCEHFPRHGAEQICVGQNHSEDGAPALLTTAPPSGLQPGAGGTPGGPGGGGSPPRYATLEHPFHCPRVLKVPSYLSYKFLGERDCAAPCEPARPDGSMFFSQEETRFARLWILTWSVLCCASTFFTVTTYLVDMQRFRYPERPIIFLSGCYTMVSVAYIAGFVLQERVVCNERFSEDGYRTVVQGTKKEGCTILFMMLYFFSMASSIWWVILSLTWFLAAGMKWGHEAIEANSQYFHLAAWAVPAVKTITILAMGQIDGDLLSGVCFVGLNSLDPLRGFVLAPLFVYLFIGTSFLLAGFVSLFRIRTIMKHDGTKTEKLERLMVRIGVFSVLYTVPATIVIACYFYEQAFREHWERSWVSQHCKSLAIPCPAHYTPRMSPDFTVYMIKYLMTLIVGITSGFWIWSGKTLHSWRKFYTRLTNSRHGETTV
HiBiT-FZD1-mCherry, sequence (O70421 69-642): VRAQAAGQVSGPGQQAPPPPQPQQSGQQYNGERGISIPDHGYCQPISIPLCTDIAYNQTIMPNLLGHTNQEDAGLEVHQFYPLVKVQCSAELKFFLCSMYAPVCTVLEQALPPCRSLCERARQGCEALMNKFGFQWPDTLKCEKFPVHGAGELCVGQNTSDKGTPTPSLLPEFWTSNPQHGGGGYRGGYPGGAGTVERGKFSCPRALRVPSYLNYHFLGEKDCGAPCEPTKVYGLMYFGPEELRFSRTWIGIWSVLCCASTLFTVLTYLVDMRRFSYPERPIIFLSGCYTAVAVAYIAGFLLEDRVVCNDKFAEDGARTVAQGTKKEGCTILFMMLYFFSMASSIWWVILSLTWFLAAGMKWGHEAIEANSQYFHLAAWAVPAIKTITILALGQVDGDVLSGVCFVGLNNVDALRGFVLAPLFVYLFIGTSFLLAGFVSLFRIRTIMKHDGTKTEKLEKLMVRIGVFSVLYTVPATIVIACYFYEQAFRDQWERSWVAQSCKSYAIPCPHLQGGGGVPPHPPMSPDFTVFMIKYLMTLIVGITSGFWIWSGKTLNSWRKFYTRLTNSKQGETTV

B1: eGFP-Wnt16 (ligand)
chain: NWMWLGIASFGVPEKLGCANLPLNSRQKELCKRKPYLLPSIREGARLGIQECGSQFRHERWNCMITAAATTAPMGASPLFGYELSSGTKETAFIYAVMAAGLVHSVTRSCSAGNMTECSCDTTLQNGGSASEGWHWGGCSDDVQYGMWFSRKFLDFPIGNTTGKENKVLLAMNLHNNEAGRQAVAKLMSVDCRCHGVSGSCAVKTCWKTMSSFEKIGHLLKDKYENSIQISDKTKRKMRRREKDQRKIPIHKDDLLYVNKSPNYCVEDKKLGIPGTQGRECNRTSEGADGCNLLCCGRGYNTHVVRHVERCECKFIWCCYVRCRRCESMTDVHTCK
Kd (HiBiT-FZD2-mCherry): 10.6 nM | Kd (HiBiT-FZD1-mCherry): 30.7 nM | Kd (HiBiT-FZD4-mCherry): 21.8 nM | Kd [1]: 14.2 nM | Kd (HiBiT-FZD8-mCherry): 6.62 nM | Kd (HiBiT-FZD7-mCherry): 10.3 nM

B2: eGFP-Wnt5a (ligand)
chain: IIGAQPLCSQLAGLSQGQKKLCHLYQDHMQYIGEGAKTGIKECQYQFRHRRWNCSTVDNTSVFGRVMQIGSRETAFTYAVSAAGVVNAMSRACREGELSTCGCSRAARPKDLPRDWLWGGCGDNIDYGYRFAKEFVDARERERIHAKGSYESARILMNLHNNEAGRRTVYNLADVACKCHGVSGSCSLKTCWLQLADFRKVGDALKEKYDSAAAMRLNSRGKLVQVNSRFNSPTTQDLVYIDPSPDYCVRNESTGSLGTQGRLCNKTSEGMDGCELMCCGRGYDQFKTVQTERCHCKFHWCCYVKCKKCTEIVDQFVCK
Kd (HiBiT-FZD2-mCherry): 3.85 nM | Kd (HiBiT-FZD1-mCherry): 14.4 nM | Kd (HiBiT-FZD4-mCherry): 3.56 nM | Kd [1]: 16.2 nM | Kd (HiBiT-FZD8-mCherry): 7.52 nM | Kd (HiBiT-FZD7-mCherry): 1.25 nM
